# From publication PMC6985046
# Experiments:
# [1] = target: PF-06438179/GP1111 Fab fragment (mouse/human chimeric); assay: AUC
# [2] = target: Remicade Fab fragment (sourced from the European Union market) (mouse/human chimeric); assay: AUC
Substance,stoichiometry N [1],Kd [2]
PF-06438179/GP1111 Fab fragment,2,
Remicade Fab fragment (sourced from the European Union market),,23 µM
